Data as given in the supplement of paper PMC10567573.

B1: INTS3 (parent)
chain: DLNSKGKKREFRFHPIKETVVEEP

Variants of: B1
Assay: protein stability index of a GFP-peptide fusion (GPS, HEK-293T) (PSI 1-6); higher = more stable
Details: c terminus: a fixed tail appended
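Further: lentivirally expressed fusions sorted by FACS into six bins by GFP to DsRed ratio, PSI derived from sequencing read proportions per bin multiplied by bin number.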

Protein stability index, by site and new letter:
R12: H 4.2 | Y 4.12 | C 3.99 | W 3.02 | G 4.24 | K 4.11 | I 3.79 | L 3.57 | E 4.03 | V 3.55 | Q 4 | S 4.04 | P 4.07 | T 4.28 | F 3.13 | M 4.12 | N 3.74 | D 4.25 | A 4.15
V21: Y 2 | D 2.71 | E 3.15 | T 2.62 | W 1.64 | G 1.97 | A 2.01 | F 1.96 | N 2.36 | Q 2.06 | R 1.6 | M 2.08 | P 2.22 | K 2.01 | I 1.99 | H 2.12 | C 2.49 | L 2.54 | S 2.1
P15: V 3.25 | A 2.96 | S 2.37 | F 2.44 | Q 2.6 | G 3.15 | Y 2.74 | I 2.65 | C 2.54 | W 2.28 | E 3.2 | N 3.65 | L 2.82 | M 2.29 | H 3.09 | R 2.9 | T 2.96 | D 3.57 | K 3.18
H14: R 3.88 | P 4.35 | F 3.34 | E 4.13 | L 4.01 | C 3.36 | K 3.91 | A 3.83 | S 3.89 | M 3.53 | I 3.57 | N 3.84 | T 3.7 | V 2.73 | Y 3.74 | D 4.59 | G 4.02 | W 3.44 | Q 3.78
P24: Y 2.32 | V 2.46 | S 2.22 | C 2.54 | D 2.4 | G 2.25 | F 2.81 | W 2.84 | R 2.19 | M 1.92 | I 1.68 | K 2.08 | Q 2.03 | A 2.2 | E 2.6 | T 2.38 | N 2 | H 2.36 | L 2.35
T19: Q 1.96 | Y 1.92 | P 1.74 | D 2.87 | I 1.94 | M 2.31 | C 2.34 | W 2.05 | H 2.42 | A 2.07 | V 1.86 | F 2.2 | R 2.04 | E 2.29 | G 2.62 | N 2.31 | S 2.12 | L 2.74 | K 2
F13: M 4.25 | S 4.27 | K 4.06 | G 4.31 | V 4.47 | T 4.02 | H 3.75 | D 4.71 | P 4.48 | E 4.75 | R 3.99 | Q 4.5 | N 4.65 | Y 2.47 | A 4.44 | C 3.94 | L 4.78 | W 3.72 | I 3.78
E18: Y 2.41 | H 2.13 | A 2.42 | S 1.94 | T 2.7 | I 1.96 | W 2.75 | N 1.63 | R 1.87 | F 2.1 | P 2.19 | M 2.28 | V 1.86 | C 2.48 | G 2.1 | K 1.79 | D 2.68 | L 2.83 | Q 1.58
E10: A 3.19 | P 2.55 | K 2.88 | L 1.94 | H 2.72 | F 1.76 | S 1.65 | V 1.3 | I 1.78 | N 2.58 | Q 1.87 | R 1.96 | D 2.7 | C 2.97 | M 1.64 | T 1.99 | G 2 | W 2.1 | Y 1.49
K17: L 3.26 | Y 2 | D 3.93 | S 3.25 | A 2.5 | I 1.94 | F 2.05 | C 2.67 | H 2.31 | V 2.69 | T 2.77 | W 1.8 | R 1.69 | M 2.69 | Q 3.01 | P 1.98 | G 2.91 | E 3.48 | N 2.6
E23: C 3.71 | Y 1.71 | N 1.73 | F 1.71 | M 2.02 | K 2.27 | G 2.13 | V 2.25 | R 2.04 | P 2.36 | H 1.99 | W 1.48 | T 2.24 | L 2.19 | Q 2.35 | A 1.81 | I 2.24 | D 2.45 | S 1.58
E22: Y 1.87 | D 2.07 | K 2.1 | I 2.21 | V 1.69 | W 2.11 | T 1.79 | M 1.57 | L 1.91 | S 1.92 | H 1.91 | F 2.01 | Q 1.64 | G 1.79 | A 2.22 | R 1.75 | P 1.96 | C 2.06 | N 1.69
F11: P 4.39 | L 3.84 | E 4.94 | N 4.13 | H 4.31 | G 4.32 | A 3.95 | C 4.47 | R 4.28 | W 2.1 | I 3.55 | D 4.88 | V 4.02 | S 4.39 | K 4.46 | Y 3.89 | T 4.87 | M 4.45 | Q 4.11
R9: D 4.09 | F 1.65 | L 1.78 | P 2.34 | N 2.49 | H 1.79 | T 2.56 | C 2.31 | Y 2.31 | V 2.37 | E 3.73 | I 2.35 | Q 2.83 | W 2.21 | G 2.41 | M 1.78 | S 2.53 | A 2.87 | K 3.07
V20: Q 2.65 | H 2.6 | M 2.25 | Y 1.92 | K 2.16 | L 1.99 | P 2.73 | R 1.77 | D 2.87 | I 1.97 | F 1.9 | N 2.37 | C 2.29 | A 2.3 | T 2.09 | E 2.54 | G 2.07 | S 2.07 | W 3.44
I16: M 2.79 | L 2.24 | A 2.06 | N 3.04 | T 2.12 | K 2.21 | H 2.31 | V 2.71 | D 3.02 | Y 2.36 | R 1.77 | G 2.29 | C 1.84 | P 2.28 | W 2.12 | Q 2.34 | F 1.88 | E 2.96 | S 1.99
K8: S 2.23 | Y 2.27 | Q 2.77 | T 2.36 | R 1.52 | W 2.27 | V 1.73
